The target in test [1] is T1, MERS-CoV Eng1 receptor-binding domain (RBD) (MERS-CoV Eng1, UniProt K9N5Q8).
T1 construct: source: GnTi-/- cells, purified (Ni-NTA, size exclusion chromatography in 1x PBS)
The test is described as follows: crystal structure. Particulars: both partners purified.

The target of test [2] is T2, recombinant MERS-CoV S1 protein (MERS-CoV, isolate EMC/2012 (strain of …, UniProt K0BRG7)).
T2 construct: source: bought: Sino Biological Inc
The test is described as follows: ELISA. Particulars: both partners purified. (In general: An ELISA detects its analyte on a solid surface through an enzyme-linked reagent.)

Three molecules from PMC4571279 (Nature Communications, 2015) can be followed below.

T1 sequence (K9N5Q8 367-601): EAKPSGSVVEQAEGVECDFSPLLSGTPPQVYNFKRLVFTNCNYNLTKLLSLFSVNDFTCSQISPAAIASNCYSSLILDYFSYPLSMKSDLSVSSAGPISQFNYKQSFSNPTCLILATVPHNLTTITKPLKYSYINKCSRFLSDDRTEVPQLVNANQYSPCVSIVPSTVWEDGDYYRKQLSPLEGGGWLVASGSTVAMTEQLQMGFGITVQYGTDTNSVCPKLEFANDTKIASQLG

B1: Fab m336 (antigen-binding fragment of antibody m336, prepared by Lys-C digestion) (Fab, V domains shown)
VH: QVQLVQSGAEVKKPGSSVKVSCKASGGTFSSYAISWVRQAPGQGLEWMGGIIPIFGTASYAQKFQGRVTITADKSTSTAYMELSSLRSEDTAVYYCARVGYCSSTSCNRGAFDIWGQGTMVTVSS
VL: DIQLTQSPSSLSASVGDRVTITCRASQGIRNDLGWYQQKPGKAPKLLIYAASSLQSGVPSRFSGSGSGTDFTLTISSLQPEDFATYYCQQLNSYPLTFGGGTKVEIK
notes: also called m336 Fab
As to B1, the binding result in test [1] is on record as “binds”.

B2: IgG1 m336 (antibody, V domains shown)
VH: QVQLVQSGAEVKKPGSSVKVSCKASGGTFSSYAISWVRQAPGQGLEWMGGIIPIFGTASYAQKFQGRVTITADKSTSTAYMELSSLRSEDTAVYYCARVGYCSSTSCNRGAFDIWGQGTMVTVSS
VL: DIQLTQSPSSLSASVGDRVTITCRASQGIRNDLGWYQQKPGKAPKLLIYAASSLQSGVPSRFSGSGSGTDFTLTISSLQPEDFATYYCQQLNSYPLTFGGGTKVEIK
notes: IgG1; also called wild-type m336; copies: 2 + 2
In the case of B2, the binding result in test [2] is reported as “binds”.

B3: Fab m336 (from the m336 Fab-expressing plasmid), wild type (Fab, V domains shown)
VH: QVQLVQSGAEVKKPGSSVKVSCKASGGTFSSYAISWVRQAPGQGLEWMGGIIPIFGTASYAQKFQGRVTITADKSTSTAYMELSSLRSEDTAVYYCARVGYCSSTSCNRGAFDIWGQGTMVTVSS
VL: DIQLTQSPSSLSASVGDRVTITCRASQGIRNDLGWYQQKPGKAPKLLIYAASSLQSGVPSRFSGSGSGTDFTLTISSLQPEDFATYYCQQLNSYPLTFGGGTKVEIK
notes: also called wild-type m336
As to B3, in test [2], the binding result is given as “binds”.
